We go through eleven molecules from US20240400716A1 (UNIVERSITY OF PITTSBURGH OF THE COMMONWEALTH SYSTEM OF …, published 2024).

The term EC50 denotes the concentration giving half of the maximal effect.

B1: Clone #1 (scFv) (scFv)
scFv: QVTLKESGAEVKKPGESLKISCKASGYSFTNYWIGWVRQMPGKGLEWMGIIYPGDSDTRYSPSFQGQVTISADKSISTAYLQWSSLKASDTAMYYCARQGGYYYGMDVWGQGTTVTVSSGGGGSGGSGSGGGGSVPVLTQPHSVSESPGKTVTISCTRSSGSIASNYVQWYQQRPGSSPTTVIYEDNQRPSGVPDRFSGSIDMSSNSASLTISGLRTEDEGDYYCQSYDSRNHVVFGGGTQLTVLG
B2: Clone #6 (VH domain) (VHH)
VHH: EVQLVESGGGLVQPGGSLRLSCTVSGFTFSSYAVSWVRQAPGQGLEWVSAIGAGGGTYYADSVKGRFTISRDNSKNTLYLQMNSLRAEDTAVYYCAKDGADWGQGTLVTVSS
notes: Single human VH antibody domain from a phage library, not camelid; also called VH-W5A4
B3: Clone #7 (VH domain) (VHH)
VHH: B2 VHH with A100V
notes: Single human VH antibody domain from a phage library, not camelid
B4: Clone #8 (VH domain) (VHH)
VHH: B2 VHH with A50S
notes: as for B3
B5: Clone #9 (VH domain) (VHH)
VHH: B2 VHH with S30D, S31D, A50S, N73D, N76D, A100V
notes: Single human VH antibody domain from a phage library, not camelid; also called VH-4mut
B6: Clone #3 (VH domain) (VHH)
VHH: EVQLVESGGGVVQPGRSLRLSCAASGFTFSSYAMHWVRQAPGKGLEWVATIYQDGSESEYVDSVKGRFTVSRDNAKNTLYLQMDSLRAEDTATYYCVGRGSTSITPVWGLGTLVTVSS
notes: Single human VH antibody domain from a phage library, not camelid; also called VH-Z4D2
B7: Clone #4 (VH domain) (VHH)
VHH: B6 VHH with N74D, G100D
notes: Single human VH antibody domain from a phage library, not camelid; also called VH-Fla; VH-F1a
B8: Clone #10 (VH domain) (VHH)
VHH: B6 VHH with L4M, R72I, G100D
notes: as for B3
B9: Clone #11 (VH domain) (VHH)
VHH: B6 VHH with R72I, G100A
notes: as for B3
B10: Clone #5 (VH domain) (VHH)
VHH: B6 VHH with V11M, V37I, T69A, G100A, T102A
notes: as for B3
B11: Clone #2 (scFv) (scFv)
scFv: QVQLQQSGAEVKKPGESLKISCKGSGYSFTNHWIAWVRQMPGKGLEWMGIIYPGDSDTRYSPSFQGQVTISADKSISTAYLQWSSLKASDTAMYYCARAQVGAFDIWGQGTMVTVSSGGGGSGGSGSSGGGSQSALTQPASVSGSPGQSITISCTRARDDVGGDNFVSWYQQHPGKAPKLMIYDVSNRPSGVSNRFSGSKSGNTASLTISGLQAEDEADYYCSSYTSSSTLPVFGGGTQLTVLG

Substitutions are numbered along the chain they refer to.

T1 sequence (Q04609 whole entry): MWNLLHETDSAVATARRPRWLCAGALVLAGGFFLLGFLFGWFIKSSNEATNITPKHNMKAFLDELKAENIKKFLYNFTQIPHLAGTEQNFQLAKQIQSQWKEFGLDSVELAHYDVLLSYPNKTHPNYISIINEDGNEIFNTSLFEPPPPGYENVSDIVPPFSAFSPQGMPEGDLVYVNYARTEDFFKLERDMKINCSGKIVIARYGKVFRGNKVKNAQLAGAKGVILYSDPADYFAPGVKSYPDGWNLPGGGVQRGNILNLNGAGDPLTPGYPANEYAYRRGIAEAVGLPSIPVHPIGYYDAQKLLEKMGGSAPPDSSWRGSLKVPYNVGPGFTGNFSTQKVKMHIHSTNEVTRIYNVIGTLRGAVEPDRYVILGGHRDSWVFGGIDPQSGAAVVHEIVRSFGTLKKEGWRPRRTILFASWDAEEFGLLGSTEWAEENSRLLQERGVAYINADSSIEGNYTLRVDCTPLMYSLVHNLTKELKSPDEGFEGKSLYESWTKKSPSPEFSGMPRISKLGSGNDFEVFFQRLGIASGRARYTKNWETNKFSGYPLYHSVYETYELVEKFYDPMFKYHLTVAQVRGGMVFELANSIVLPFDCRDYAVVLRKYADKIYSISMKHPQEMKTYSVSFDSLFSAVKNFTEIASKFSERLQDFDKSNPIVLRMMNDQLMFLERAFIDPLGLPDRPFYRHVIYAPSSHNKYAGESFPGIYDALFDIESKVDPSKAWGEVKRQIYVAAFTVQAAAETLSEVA

This assay addresses T1, human PSMA polypeptide (prostate specific membrane antigen) (human, UniProt Q04609 1-750).
T1 construct: also called PSMA protein
Description: binding to LNCaP cells expressing PSMA. Here is the method:
Binding affinity and specificity to a human PSMA polypeptide were tested using LNCaP cells expressing the PSMA protein.
In turn, B1 displayed an EC50 of 6.56 nM.

Turning to B2, the EC50 turned out to be 32.7 nM. Against the preceding molecule, the EC50 is about 5-fold higher.

As to B3, the EC50 is 8.65 nM. Against the preceding molecule, the EC50 is about 3.8-fold lower.

Molecule B4 yielded an EC50 of 10.8 nM. This EC50 and that of the molecule before are within 1.5-fold of each other. As to B5, the EC50 worked out at 15.1 nM. Then B6, with 4.59 nM; and B7, with 3.05 nM; and B8, with 8.7 nM. Molecule B9 came in with an EC50 of 1.81 nM. Then B10, with 2.95 nM; and B11, with 8.97 nM.
